Consider two molecules from patent publication US20100317598A1 (University of California, published 2010).

Experiment [1] deals with p53 (human, UniProt P04637 1-393). Kind of experiment: cell-based or functional assay.
Experiment [2] deals with cytochrome C (human, UniProt P99999 2-105). Description: immunopurification of cytochrome C from transfected HBL-100 cells, quantified immunoblot for APAF-1. On the technique in general: In western blotting, separated proteins are transferred to a membrane and probed.
Sequence of cytochrome C (P99999 2-105 limits assumed): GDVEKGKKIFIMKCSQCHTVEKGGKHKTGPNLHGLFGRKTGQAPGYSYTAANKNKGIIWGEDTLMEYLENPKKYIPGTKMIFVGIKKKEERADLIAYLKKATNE
Procedure: Immunoblots were quantified using a Kodak 4000 Imaging Station and software. […] Values were obtained from three independent experiments.
HBL-100 and MCF-7 cells were exposed to UV light (6,600 microwatt seconds per square centimeter), or treated with adriamycin (0.2 μg ml⁻¹) for 24 h. […] Immunoblots shown were quantified on a Kodak 4000 Imaging Station and software.

Sequence of p53 (P04637 whole entry): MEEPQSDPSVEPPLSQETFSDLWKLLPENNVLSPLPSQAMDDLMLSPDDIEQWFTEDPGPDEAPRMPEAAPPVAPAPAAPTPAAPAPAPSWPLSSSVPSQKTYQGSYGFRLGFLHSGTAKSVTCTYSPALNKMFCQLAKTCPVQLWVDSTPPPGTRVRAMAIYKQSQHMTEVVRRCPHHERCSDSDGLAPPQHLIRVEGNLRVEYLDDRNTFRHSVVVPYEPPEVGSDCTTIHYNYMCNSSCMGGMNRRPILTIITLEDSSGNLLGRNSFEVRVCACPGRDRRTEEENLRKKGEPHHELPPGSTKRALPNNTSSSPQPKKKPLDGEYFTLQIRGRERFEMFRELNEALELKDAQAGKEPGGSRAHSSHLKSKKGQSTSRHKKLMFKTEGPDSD

B1: HA-tag-BRCA1 (772-1292) (other, not shown: small tags and cut ends)
chain: VPGTDYGTQESISLLEVSTLGKAKTEPNKCVSQCAAFENPKGLIHGCSKDNRNDTEGFKYPLGHEVNHSRETSIEMEESELDAQYLQNTFKVSKRQSFAPFSNPGNAEEECATFSAHSGSLKKQSPKVTFECEQKEENQGKNESNIKPVQTVNITAGFPVVGQKDKPVDNAKCSIKGGSRFCLSSQFRGNETGLITPNKHGLLQNPYRIPPLFPIKSFVKTKCKKNLLEENFEEHSMSPEREMGNENIPSTVSTISRNNIRENVFKEASSSNINEVGSSTNEVGSSINEIGSSDENIQAELGRNRGPKLNAMLRLGVLQPEVYKQSLPGSNCKHPEIKKQEYEEVVQTVNTDFSPYLISDNLEQPMGSSHASQVCSETPDDLLDDGEIKEDTSFAENDIKESSAVFSKSVQKGELSRSPSPFTHTHLAQGYRRGAKKLESSEENLSSEDEELPCFQHLLFGKVNNIPSQSTRHSTVATECLSKNTEENLLSLKNSLNDCSNQVILAKASQEHHLSEETKCS
On to B1, for which, in experiment [1], the “expression of p21 (immunoblot of immunopurified p21), HBL-100 cells” value is 5 fold and the “percentage of cells in apoptosis (annexin-V-FITC binding), HBL-100 cells” value was more than 10 fold.

B2: APAF-1 (other, human, UniProt O14727 1-1248, looked up)
chain: MDAKARNCLLQHREALEKDIKTSYIMDHMISDGFLTISEEEKVRNEPTQQQRAAMLIKMILKKDNDSYVSFYNALLHEGYKDLAALLHDGIPVVSSSSGKDSVSGITSYVRTVLCEGGVPQRPVVFVTRKKLVNAIQQKLSKLKGEPGWVTIHGMAGCGKSVLAAEAVRDHSLLEGCFPGGVHWVSVGKQDKSGLLMKLQNLCTRLDQDESFSQRLPLNIEEAKDRLRILMLRKHPRSLLILDDVWDSWVLKAFDSQCQILLTTRDKSVTDSVMGPKYVVPVESSLGKEKGLEILSLFVNMKKADLPEQAHSIIKECKGSPLVVSLIGALLRDFPNRWEYYLKQLQNKQFKRIRKSSSYDYEALDEAMSISVEMLREDIKDYYTDLSILQKDVKVPTKVLCILWDMETEEVEDILQEFVNKSLLFCDRNGKSFRYYLHDLQVDFLTEKNCSQLQDLHKKIITQFQRYHQPHTLSPDQEDCMYWYNFLAYHMASAKMHKELCALMFSLDWIKAKTELVGPAHLIHEFVEYRHILDEKDCAVSENFQEFLSLNGHLLGRQPFPNIVQLGLCEPETSEVYQQAKLQAKQEVDNGMLYLEWINKKNITNLSRLVVRPHTDAVYHACFSEDGQRIASCGADKTLQVFKAETGEKLLEIKAHEDEVLCCAFSTDDRFIATCSVDKKVKIWNSMTGELVHTYDEHSEQVNCCHFTNSSHHLLLATGSSDCFLKLWDLNQKECRNTMFGHTNSVNHCRFSPDDKLLASCSADGTLKLWDATSANERKSINVKQFFLNLEDPQEDMEVIVKCCSWSADGARIMVAAKNKIFLFDIHTSGLLGEIHTGHHSTIQYCDFSPQNHLAVVALSQYCVELWNTDSRSKVADCRGHLSWVHGVMFSPDGSSFLTSSDDQTIRLWETKKVCKNSAVMLKQEVDVVFQENEVMVLAVDHIRRLQLINGRTGQIDYLTEAQVSCCCLSPHLQYIAFGDENGAIEILELVNNRIFQSRFQHKKTVWHIQFTADEKTLISSSDDAEIQVWNWQLDKCIFLRGHQETVKDFRLLKNSRLLSWSFDGTVKVWNIITGNKEKDFVCHQGTVLSCDISHDATKFSSTSADKTAKIWSFDLLLPLHELRGHNGCVRCSAFSVDSTLLATGDDNGEIRIWNVSNGELLHLCAPLSEEGAATHGGWVTDLCFSPDGKMLISAGGYIKWWNVVTGESSQTFYTNGTNLKKIHVSPDFKTYVTVDNLGILYILQTLE
B2: the “fold increase of APAF-1 associated to cytochrome C (cells expressing BRCA1 (772-1292) against cells expressing control BRCA1 wt or BRCA1 (772-1036))” value in experiment [2] came out at 3 fold.
